From patent US11510992
Values belong to the substance of their own block, whether it stands above or below them.

Columns and labels:
[1] = target: neuraminidase of influenza B/Malaysia/2506/2004 (Victoria) (influenza B virus B/Malaysia/2506/2004 (Victoria)); assay: cell-based or functional assay
[2] = target: neuraminidase of influenza A/HK/1/1968 (H3N2) (influenza A virus A/HK/1/1968 (H3N2)) (UniProt Q91MA2); assay: cell-based or functional assay
[3] = target: neuraminidase of influenza A/CA/07/2009 (H1N1)pdm (influenza A virus A/CA/07/2009 (H1N1)pdm); assay: cell-based or functional assay
[4] = target: Neuraminidase of influenza B/Washington/02/2019 (Victoria) (influenza B virus B/Washington/02/2019 (Victoria)); assay: cell-based or functional assay
[5] = target: Neuraminidase of influenza A/Hawaii/70/2019 (H1N1pdm09) (influenza A virus A/Hawaii/70/2019 (H1N1pdm09)); assay: cell-based or functional assay
[6] = target: Neuraminidase of influenza B/Phuket/3073/2013 (Yamagata) (influenza B virus B/Phuket/3073/2013 (Yamagata)); assay: cell-based or functional assay
[7] = target: Neuraminidase of influenza A/Hong Kong/2671/2019 (H3N2) (influenza A virus A/Hong Kong/2671/2019 (H3N2)); assay: cell-based or functional assay
rat FcγR3A/CD16a (rat) = rat FcγR3A/CD16a (rat) (UniProt Q6XPU4)
Sequence of rat FcγR3A/CD16a (rat) (Q6XPU4 21-203 limits assumed): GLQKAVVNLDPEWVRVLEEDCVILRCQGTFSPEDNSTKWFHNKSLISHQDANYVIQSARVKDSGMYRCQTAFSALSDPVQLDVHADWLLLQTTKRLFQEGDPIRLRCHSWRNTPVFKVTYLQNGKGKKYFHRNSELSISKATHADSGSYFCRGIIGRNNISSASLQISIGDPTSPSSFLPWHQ

[8] = target: cynomolgus monkey FcγR2B/CD32b (cynomolgus monkey)
[9] = target: cynomolgus monkey FcγR2A/CD32a (cynomolgus monkey)
rat FcγR2B/CD32b (rat) = rat FcγR2B/CD32b (rat) (UniProt Q63203)
Sequence of rat FcγR2B/CD32b (rat) (Q63203 32-212): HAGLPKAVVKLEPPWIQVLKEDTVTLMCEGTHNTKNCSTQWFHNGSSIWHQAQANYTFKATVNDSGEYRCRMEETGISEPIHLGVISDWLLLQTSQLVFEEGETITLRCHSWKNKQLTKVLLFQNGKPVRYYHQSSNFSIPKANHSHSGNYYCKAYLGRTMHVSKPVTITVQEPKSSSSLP

[10] = target: cynomolgus monkey FcγR1/CD64 (cynomolgus monkey)
[11] = target: human FcγR2A/CD32a (R167) (human) (UniProt P12318)
Sequence of human FcγR2A/CD32a (R167) (human) (P12318 36-218 H167R): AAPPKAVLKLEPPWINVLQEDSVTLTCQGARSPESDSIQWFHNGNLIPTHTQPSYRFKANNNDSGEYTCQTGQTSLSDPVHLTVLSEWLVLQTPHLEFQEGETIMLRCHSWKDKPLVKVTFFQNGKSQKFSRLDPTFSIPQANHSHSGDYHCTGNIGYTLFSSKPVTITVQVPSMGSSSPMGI

[12] = target: mouse FcγR2B/CD32b (mouse) (UniProt P08101)
Sequence of mouse FcγR2B/CD32b (mouse) (P08101 30-210): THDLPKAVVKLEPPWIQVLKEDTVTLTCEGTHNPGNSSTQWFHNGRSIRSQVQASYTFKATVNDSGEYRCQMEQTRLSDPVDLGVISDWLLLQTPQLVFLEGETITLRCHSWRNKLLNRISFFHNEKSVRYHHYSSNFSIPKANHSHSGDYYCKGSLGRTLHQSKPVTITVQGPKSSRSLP

mouse FcγR1/CD64 (mouse) = mouse FcγR1/CD64 (mouse) (UniProt P26151)
Sequence of mouse FcγR1/CD64 (mouse) (P26151 25-297 limits assumed): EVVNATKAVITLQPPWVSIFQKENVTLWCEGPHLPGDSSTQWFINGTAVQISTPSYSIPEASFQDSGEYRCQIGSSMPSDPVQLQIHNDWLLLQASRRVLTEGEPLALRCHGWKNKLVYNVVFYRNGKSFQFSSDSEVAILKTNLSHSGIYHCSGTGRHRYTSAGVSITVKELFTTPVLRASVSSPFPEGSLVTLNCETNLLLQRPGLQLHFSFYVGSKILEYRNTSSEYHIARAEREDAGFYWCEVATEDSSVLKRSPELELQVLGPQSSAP

human FcγR1/CD64 (human) = human FcγR1/CD64 (human) (UniProt P12314)
Sequence of human FcγR1/CD64 (human) (P12314 16-288 limits assumed): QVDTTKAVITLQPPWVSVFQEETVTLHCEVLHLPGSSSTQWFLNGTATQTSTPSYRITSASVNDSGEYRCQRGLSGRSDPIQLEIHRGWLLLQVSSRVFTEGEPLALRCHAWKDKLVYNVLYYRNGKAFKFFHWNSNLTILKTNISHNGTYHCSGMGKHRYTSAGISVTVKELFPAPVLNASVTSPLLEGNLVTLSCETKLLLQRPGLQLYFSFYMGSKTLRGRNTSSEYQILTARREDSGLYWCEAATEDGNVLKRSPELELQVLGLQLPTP

mouse FcRn (mouse) [13] = target: mouse FcRn (mouse) (UniProt Q61559); assay: pH 7.4
[14] = target: cynomolgus monkey FcRn (cynomolgus monkey) (UniProt Q8SPV9); assay: pH 7.4
mouse FcRn (mouse) [15] = target: mouse FcRn (mouse) (UniProt Q61559); assay: pH 5.8
[16] = target: cynomolgus monkey FcRn (cynomolgus monkey) (UniProt Q8SPV9); assay: pH 5.8
human FcRn (human) = human FcRn (human) (UniProt P55899); assay: pH 5.8
rat FcRn (rat) = rat FcRn (rat) (UniProt P13599); assay: pH 5.8
Sequence of rat FcRn (rat) (P13599 23-298 limits assumed, form in doubt, chain 1 of 2): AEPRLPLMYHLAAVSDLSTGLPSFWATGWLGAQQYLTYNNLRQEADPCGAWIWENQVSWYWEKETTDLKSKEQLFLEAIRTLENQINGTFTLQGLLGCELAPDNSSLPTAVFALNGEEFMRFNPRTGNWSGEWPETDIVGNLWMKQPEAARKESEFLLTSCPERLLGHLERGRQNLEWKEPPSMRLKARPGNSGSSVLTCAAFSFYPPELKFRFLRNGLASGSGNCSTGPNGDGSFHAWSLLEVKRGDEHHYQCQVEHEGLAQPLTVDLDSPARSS
Sequence of rat FcRn (rat) (chain, as listed by the source limits assumed, form in doubt, chain 2 of 2): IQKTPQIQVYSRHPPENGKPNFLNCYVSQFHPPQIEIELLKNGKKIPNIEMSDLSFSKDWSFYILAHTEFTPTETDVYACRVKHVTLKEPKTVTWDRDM

Substance: Fc alone (SEQ ID NO: 73) (from UniProt P0DOX5 203-448)
ADCP (fold induction), reporter cells on MDCK cells, MOI 0 (fold induction) [1]: 1.07 | ADCP (fold induction), reporter cells on infected MDCK cells, MOI 0.1 (fold induction) [1]: 0.98 | ADCP (fold induction), reporter cells on infected MDCK cells, MOI 0.3 (fold induction) [1]: 0.99 | ADCP (fold induction), reporter cells on infected MDCK cells, MOI 1 (fold induction) [1]: 1.14 | ADCP (fold induction), reporter cells on infected MDCK cells, MOI 3 (fold induction) [1]: 1.11 | ADCP (fold induction), reporter cells on infected MDCK cells, MOI 10 (fold induction) [1]: 1 | ADCP (fold induction), reporter cells on MDCK cells, MOI 0 (fold induction) [2]: 1.02 | ADCP (fold induction), reporter cells on infected MDCK cells, MOI 0.1 (fold induction) [2]: 1.07 | ADCP (fold induction), reporter cells on infected MDCK cells, MOI 0.3 (fold induction) [2]: 1.05 | ADCP (fold induction), reporter cells on infected MDCK cells, MOI 1 (fold induction) [2]: 1.18 | ADCP (fold induction), reporter cells on infected MDCK cells, MOI 3 (fold induction) [2]: 1.01 | ADCP (fold induction), reporter cells on infected MDCK cells, MOI 10 (fold induction) [2]: 1.06 | ADCP (fold induction), reporter cells on MDCK cells, MOI 0 (fold induction) [3]: 0.98 | ADCP (fold induction), reporter cells on infected MDCK cells, MOI 0.1 (fold induction) [3]: 1.14 | ADCP (fold induction), reporter cells on infected MDCK cells, MOI 0.3 (fold induction) [3]: 1.03 | ADCP (fold induction), reporter cells on infected MDCK cells, MOI 1 (fold induction) [3]: 0.99 | ADCP (fold induction), reporter cells on infected MDCK cells, MOI 3 (fold induction) [3]: 0.93 | ADCP (fold induction), reporter cells on infected MDCK cells, MOI 10 (fold induction) [3]: 1.05

Substance: hIgG1 Fc (from UniProt P01857 84-329)
IC50, enzyme-linked lectin assay (ELLA), fetuin substrate, live virus [4]: > 1000 nM | IC50, enzyme-linked lectin assay (ELLA), fetuin substrate, live virus [5]: > 1000 nM | IC50, enzyme-linked lectin assay (ELLA), fetuin substrate, live virus [6]: > 1000 nM | IC50, enzyme-linked lectin assay (ELLA), fetuin substrate, live virus [7]: > 1000 nM

EC50 (rat FcγR3A/CD16a (rat)): 0.008 nM | EC50 [8]: 1 nM | EC50 [9]: 693 nM | EC50 (rat FcγR2A/CD32a (rat)): 1 nM | EC50 (rat FcγR2B/CD32b (rat)): 208 nM | EC50 (rat FcγR1/CD64 (rat)): 2 nM | EC50 [10]: 0.37 nM | EC50 [11]: 144 nM | EC50 [12]: 153 nM | EC50 (mouse FcγR1/CD64 (mouse)): 3 nM | EC50 (human FcγR1/CD64 (human)): 7 nM | EC50 (mouse FcRn (mouse) [13]): 40 nM | EC50 [14]: 78 nM | EC50 (mouse FcRn (mouse) [15]): 5 nM | EC50 [16]: 28 nM | EC50 (human FcRn (human)): 44 nM | EC50 (rat FcRn (rat)): 13 nM
Substance: human IgG1 isotype control antibody
